Experimental data from patent publication US7183387 (Genentech, dated 2007).

Key:
[1] = target: T1, human FcγRIIB α subunit extracellular domain-His6-GST fusion (human, UniProt P31994 43-217); test: hexamer ELISA
T1 construct: extracellular domain; also called CD32; not shown: glutathione S transferase (GST)
T1 sequence: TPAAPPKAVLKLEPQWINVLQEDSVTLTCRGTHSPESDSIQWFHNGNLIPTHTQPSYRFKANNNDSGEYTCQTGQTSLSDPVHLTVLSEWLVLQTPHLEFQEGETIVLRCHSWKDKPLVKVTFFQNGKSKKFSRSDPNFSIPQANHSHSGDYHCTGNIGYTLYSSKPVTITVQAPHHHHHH

[2] = target: T2, human FcγRIIIA-Phe158 α subunit extracellular domain-His6-GST fusion (human, UniProt P08637 17-208); test: hexamer ELISA
T2 construct: extracellular domain; also called FcγRIIIA-F158; CD16; not shown: glutathione S transferase (GST)
T2 sequence (P08637 other isoform, or with tags, fused parts or gaps): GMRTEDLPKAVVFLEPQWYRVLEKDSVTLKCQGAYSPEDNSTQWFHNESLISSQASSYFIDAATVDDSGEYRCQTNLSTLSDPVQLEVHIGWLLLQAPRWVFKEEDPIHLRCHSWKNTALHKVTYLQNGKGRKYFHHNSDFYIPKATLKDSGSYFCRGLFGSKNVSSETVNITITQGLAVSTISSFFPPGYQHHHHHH

[3] = target: T3, human FcγRIIA-Arg131 α subunit extracellular domain-His6-GST fusion (human, UniProt P12318 34-217); test: hexamer ELISA
T3 construct: extracellular domain; also called FcγRIIA-R131; not shown: glutathione S transferase (GST)
T3 sequence: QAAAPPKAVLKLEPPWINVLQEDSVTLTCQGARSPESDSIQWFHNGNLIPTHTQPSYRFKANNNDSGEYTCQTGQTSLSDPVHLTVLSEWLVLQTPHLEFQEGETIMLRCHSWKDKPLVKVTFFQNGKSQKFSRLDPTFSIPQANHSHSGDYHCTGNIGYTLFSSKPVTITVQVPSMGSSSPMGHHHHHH

[4] = target: T4, human neonatal Fc receptor (FcRn), biotinylated (human, UniProt P55899 24-297; P61769 21-119, biotinylated (biotin-X-NHS)); test: FcRn ELISA, pH 6.0;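 note: Streptavidin-captured FcRn plates, IgG variants titrated 2 h at pH 6.0, peroxidase anti-human IgG read at 450 nm, variant over standard concentration at the standard curve mid-point absorbance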
T4 construct: captured on streptavidin plates
T4 sequence (P55899 24-297 limits assumed, chain 1 of 2): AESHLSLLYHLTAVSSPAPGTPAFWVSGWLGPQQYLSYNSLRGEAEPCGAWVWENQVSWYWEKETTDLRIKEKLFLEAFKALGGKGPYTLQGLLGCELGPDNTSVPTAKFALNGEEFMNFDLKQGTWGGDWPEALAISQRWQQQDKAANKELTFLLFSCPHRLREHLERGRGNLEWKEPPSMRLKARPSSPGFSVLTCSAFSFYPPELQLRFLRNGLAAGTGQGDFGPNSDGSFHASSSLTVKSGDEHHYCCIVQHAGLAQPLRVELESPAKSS
T4 sequence (P61769 21-119 limits assumed, chain 2 of 2): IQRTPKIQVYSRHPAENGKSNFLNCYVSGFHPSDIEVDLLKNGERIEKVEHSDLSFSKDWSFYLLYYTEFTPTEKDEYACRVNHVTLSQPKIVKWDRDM

[5] = target: T5, human FcγRIA α subunit extracellular domain-His6-GST fusion (human, UniProt P12314 16-292); test: FcγRI ELISA and THP-1 cells, averaged
T5 construct: extracellular domain; also called GST-FcγRIA; CD64; not shown: glutathione S transferase (GST)
T5 sequence (P12314 other isoform, or with tags, fused parts or gaps): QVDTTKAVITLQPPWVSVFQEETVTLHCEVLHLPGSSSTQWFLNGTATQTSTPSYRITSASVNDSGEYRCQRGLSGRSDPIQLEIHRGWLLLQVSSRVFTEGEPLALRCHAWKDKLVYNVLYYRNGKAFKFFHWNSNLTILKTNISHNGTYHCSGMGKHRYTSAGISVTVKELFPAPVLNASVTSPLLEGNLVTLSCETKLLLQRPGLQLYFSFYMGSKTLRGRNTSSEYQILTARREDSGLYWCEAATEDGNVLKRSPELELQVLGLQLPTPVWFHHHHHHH

| Binder | ratio to native IgG1 [1] [ratio] | ratio to native IgG1 [2] [ratio] | ratio to native IgG1 [3] [ratio] | ratio to native IgG1 [4] [ratio] | ratio to native IgG1 [5] [ratio] |
| --- | --- | --- | --- | --- | --- |
| anti-IgE E27 IgG1 His268Ala (antibody, also called H281A (268 in EU numbering); G16 H268A) heavy: not shown light: DIQLTQSPSSLSASVGDRVTITCRASKPVDGEGDSYLNWYQQKPGKAPKLLIYAASYLESGVPSRFSGSGSGTDFTLTISSLQPEDFATYYCQQSHEDPYTFGQGTKVEIKRTVAAPSVFIFPPSDEQLKSGTASVVCLLNNFYPREAKVQWKVDNALQSGNSQESVTEQDSKDSTYSLSSTLTLSKADYEKHKVYACEVTHQGLSSPVTKSFNRGEC | 1.44 | 0.54 | 1.21 | 1.02 | 1.09 |
| anti-IgE E27 IgG1 His285Ala (antibody) heavy: not shown light: DIQLTQSPSSLSASVGDRVTITCRASKPVDGEGDSYLNWYQQKPGKAPKLLIYAASYLESGVPSRFSGSGSGTDFTLTISSLQPEDFATYYCQQSHEDPYTFGQGTKVEIKRTVAAPSVFIFPPSDEQLKSGTASVVCLLNNFYPREAKVQWKVDNALQSGNSQESVTEQDSKDSTYSLSSTLTLSKADYEKHKVYACEVTHQGLSSPVTKSFNRGEC | 1.23 | 0.87 | 1.26 | 0.85 | 0.96 |
| anti-IgE E27 IgG1 His433Ala (antibody) heavy: not shown light: DIQLTQSPSSLSASVGDRVTITCRASKPVDGEGDSYLNWYQQKPGKAPKLLIYAASYLESGVPSRFSGSGSGTDFTLTISSLQPEDFATYYCQQSHEDPYTFGQGTKVEIKRTVAAPSVFIFPPSDEQLKSGTASVVCLLNNFYPREAKVQWKVDNALQSGNSQESVTEQDSKDSTYSLSSTLTLSKADYEKHKVYACEVTHQGLSSPVTKSFNRGEC | 0.79 | 1.02 | 0.92 | 0.41 | 0.98 |
| anti-IgE E27 IgG1 Ile253Ala (antibody) heavy: not shown light: DIQLTQSPSSLSASVGDRVTITCRASKPVDGEGDSYLNWYQQKPGKAPKLLIYAASYLESGVPSRFSGSGSGTDFTLTISSLQPEDFATYYCQQSHEDPYTFGQGTKVEIKRTVAAPSVFIFPPSDEQLKSGTASVVCLLNNFYPREAKVQWKVDNALQSGNSQESVTEQDSKDSTYSLSSTLTLSKADYEKHKVYACEVTHQGLSSPVTKSFNRGEC | 1.18 | 1.08 | 1.14 | 0.1 | 0.96 |
| anti-IgE E27 IgG1 Leu309Ala (antibody) heavy: not shown light: DIQLTQSPSSLSASVGDRVTITCRASKPVDGEGDSYLNWYQQKPGKAPKLLIYAASYLESGVPSRFSGSGSGTDFTLTISSLQPEDFATYYCQQSHEDPYTFGQGTKVEIKRTVAAPSVFIFPPSDEQLKSGTASVVCLLNNFYPREAKVQWKVDNALQSGNSQESVTEQDSKDSTYSLSSTLTLSKADYEKHKVYACEVTHQGLSSPVTKSFNRGEC | 1.26 | 1.07 | 1.13 | 0.63 | 0.93 |
| anti-IgE E27 IgG1 Lys288Ala (antibody) heavy: not shown light: DIQLTQSPSSLSASVGDRVTITCRASKPVDGEGDSYLNWYQQKPGKAPKLLIYAASYLESGVPSRFSGSGSGTDFTLTISSLQPEDFATYYCQQSHEDPYTFGQGTKVEIKRTVAAPSVFIFPPSDEQLKSGTASVVCLLNNFYPREAKVQWKVDNALQSGNSQESVTEQDSKDSTYSLSSTLTLSKADYEKHKVYACEVTHQGLSSPVTKSFNRGEC | 1.14 | 1.06 | 1.15 | 0.38 | 0.88 |
| anti-IgE E27 IgG1 Lys290Ala (antibody, also called K290(307)A) heavy: not shown light: DIQLTQSPSSLSASVGDRVTITCRASKPVDGEGDSYLNWYQQKPGKAPKLLIYAASYLESGVPSRFSGSGSGTDFTLTISSLQPEDFATYYCQQSHEDPYTFGQGTKVEIKRTVAAPSVFIFPPSDEQLKSGTASVVCLLNNFYPREAKVQWKVDNALQSGNSQESVTEQDSKDSTYSLSSTLTLSKADYEKHKVYACEVTHQGLSSPVTKSFNRGEC | 1.38 | 1.31 | 1.3 | 0.79 | 1.01 |
| anti-IgE E27 IgG1 Lys317Ala (antibody, also called Lys317A1a) heavy: not shown light: DIQLTQSPSSLSASVGDRVTITCRASKPVDGEGDSYLNWYQQKPGKAPKLLIYAASYLESGVPSRFSGSGSGTDFTLTISSLQPEDFATYYCQQSHEDPYTFGQGTKVEIKRTVAAPSVFIFPPSDEQLKSGTASVVCLLNNFYPREAKVQWKVDNALQSGNSQESVTEQDSKDSTYSLSSTLTLSKADYEKHKVYACEVTHQGLSSPVTKSFNRGEC | 1.18 | 1.1 | 1.13 | 1.44 | 0.92 |
| anti-IgE E27 IgG1 Lys326Ala (antibody) heavy: not shown light: DIQLTQSPSSLSASVGDRVTITCRASKPVDGEGDSYLNWYQQKPGKAPKLLIYAASYLESGVPSRFSGSGSGTDFTLTISSLQPEDFATYYCQQSHEDPYTFGQGTKVEIKRTVAAPSVFIFPPSDEQLKSGTASVVCLLNNFYPREAKVQWKVDNALQSGNSQESVTEQDSKDSTYSLSSTLTLSKADYEKHKVYACEVTHQGLSSPVTKSFNRGEC | 1.41 | 1.23 | 1.23 | 1.03 | 1.03 |
| anti-IgE E27 IgG1 Lys334Ala (antibody, also called G55 K334A) heavy: not shown light: DIQLTQSPSSLSASVGDRVTITCRASKPVDGEGDSYLNWYQQKPGKAPKLLIYAASYLESGVPSRFSGSGSGTDFTLTISSLQPEDFATYYCQQSHEDPYTFGQGTKVEIKRTVAAPSVFIFPPSDEQLKSGTASVVCLLNNFYPREAKVQWKVDNALQSGNSQESVTEQDSKDSTYSLSSTLTLSKADYEKHKVYACEVTHQGLSSPVTKSFNRGEC | 0.9 | 1.39 | 1.01 | 1.05 | 1.06 |
| anti-IgE E27 IgG1 Lys338Ala (antibody) heavy: not shown light: DIQLTQSPSSLSASVGDRVTITCRASKPVDGEGDSYLNWYQQKPGKAPKLLIYAASYLESGVPSRFSGSGSGTDFTLTISSLQPEDFATYYCQQSHEDPYTFGQGTKVEIKRTVAAPSVFIFPPSDEQLKSGTASVVCLLNNFYPREAKVQWKVDNALQSGNSQESVTEQDSKDSTYSLSSTLTLSKADYEKHKVYACEVTHQGLSSPVTKSFNRGEC | 0.63 | 0.15 | 0.78 | 1.14 | 0.9 |
| anti-IgE E27 IgG1 Lys360Ala (antibody) heavy: not shown light: DIQLTQSPSSLSASVGDRVTITCRASKPVDGEGDSYLNWYQQKPGKAPKLLIYAASYLESGVPSRFSGSGSGTDFTLTISSLQPEDFATYYCQQSHEDPYTFGQGTKVEIKRTVAAPSVFIFPPSDEQLKSGTASVVCLLNNFYPREAKVQWKVDNALQSGNSQESVTEQDSKDSTYSLSSTLTLSKADYEKHKVYACEVTHQGLSSPVTKSFNRGEC | 1.12 | 1.23 | 1.12 | 1.3 | 1.02 |
